What was measured:
[1] = target: human IgG (Oriental Yeast Co., ltd) (human); assay: affinity column (1 ml carrier with immobilised protein), human IgG 1 mg/ml at pH 7.2, 10% breakthrough, flow rate 1.0 mL/min
[2] = target: human IgG (Oriental Yeast Co., ltd) (human); assay: affinity column (1 ml carrier with immobilised protein), human IgG 1 mg/ml at pH 7.2, 10% breakthrough, flow rate 0.4 mL/min
[3] = target: human IgG (Oriental Yeast Co., ltd) (human); assay: pH gradient affinity chromatography, bound at pH 7.2, gradient 20 mM citric acid pH 6.0 to pH 2.4 over 80 min

dynamic binding capacity (DBC) [1]: 5.3 mg
dynamic binding capacity (DBC) [2]: 12.3 mg
pH at the peak of the elution of human IgG [3]: 4.4 pH
B1: tandem-type tetramer PG, rPG-A4 (CGB19H-4D) (designed binder)
chain: MAYYDPETGTWYSGGRDTYKLILNGKTLKGETTTEAVDAATAEKVFKHYANEHGVHGHWTYDPETKTFTVTERPEVIDASELTPAVDTYKLILNGKTLKGETTTEAVDAATAEKVFKHYANEHGVHGHWTYDPETKTFTVTERPEVIDASELTPAVDTYKLILNGKTLKGETTTEAVDAATAEKVFKHYANEHGVHGHWTYDPETKTFTVTERPEVIDASELTPAVDTYKLILNGKTLKGETTTEAVDAATAEKVFKHYANEHGVHGHWTYDPETKTFTVTERPEVIDASELTPAVGGGGSGGGGSGGGGSGGGGCHHHHHH
